Literature values, collected in PMC11111649.

Molecular target: Angiotensin II (Homo sapiens) (UniProt P01019)
Chain of UniProt P01019 (P01019 whole entry, looked up): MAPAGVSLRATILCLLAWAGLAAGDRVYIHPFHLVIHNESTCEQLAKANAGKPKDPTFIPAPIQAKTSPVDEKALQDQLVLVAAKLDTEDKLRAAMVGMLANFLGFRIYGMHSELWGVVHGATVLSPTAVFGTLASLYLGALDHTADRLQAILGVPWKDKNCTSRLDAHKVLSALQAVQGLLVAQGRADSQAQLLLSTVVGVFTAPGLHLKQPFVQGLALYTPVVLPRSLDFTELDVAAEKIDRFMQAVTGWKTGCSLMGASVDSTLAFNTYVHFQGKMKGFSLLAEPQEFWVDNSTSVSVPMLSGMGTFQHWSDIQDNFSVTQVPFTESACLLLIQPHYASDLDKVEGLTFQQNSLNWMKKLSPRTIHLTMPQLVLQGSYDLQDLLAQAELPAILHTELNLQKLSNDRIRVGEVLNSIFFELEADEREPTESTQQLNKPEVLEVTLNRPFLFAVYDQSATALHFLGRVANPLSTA

Kd: 1 nM
Substance: AT1R (from UniProt P30556)
